Measurements published in a protein production outcome set (Wang et al. 2014).

assay: label from the status in PepcDB records
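Also: failed if final PepcDB status was selected cloned or expressed and not failed if soluble or beyond.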

Row | Sequence | protein production
1 | MSKPGTPKHGAGSSSAAAAPEKISKYNISTEKCGDLTVIVQGDLSQQEKRAVFITVHDLGCNHNSFQEFVSSPCMTEIKERSCFIHVDVPGHADNAEALADGFPFPSLQSLGEDLVTVLDYLHVKYVIGLGEGAGANVLARFGLAHPSRVLGLILINATGSAASVVQSFKNKFISWKSDEVAQSAESFLMYHKFGHQIVGENPDKEKIVAEYQKRLHRSLNSKNIGLYVKAFMNRKDLTLKGCKVDVILITGMLSPYASMVEKLHRDVEKERVTILKIERAGDVLADAPGKVAQSILLFCKGQGLLTSVVMPGVDRGRAFSTASSGSLEGANGSRRLSRGISMEDYDKPNIRRLSIMNSELPKKE | failed
2 | MSKPHALRGVLANLISESQSPLTPESIIREFRATSDRRLPACDLIKVLVSISEKRPNFAEVTKEISHILQNKDPMYALLVFVERYSECKPVSESSSSTSLSAMGLPHGNKTSDVNSAAGSVPTTLAIASTSTILTTSQNVSGSTRLSLTQSQDFPTSTPVNCKKATESDTTPVVFVRRGPMDRNRGAGKDERNDLSVIKERVLNAVSDQSLSGYRSVTNKTGNSPKSMPNDLVTLTDVPDEYRTHLLWEYYKVDGDKVPRAEIAAMPLLSQESMLLDELLHCLTGIRESLLVPQKPIISAVGLAKYDTDFDIHTHLDRSLTHQVREILPLASYFMGVQKIIAATDGLGQVMNSLNEALQELTHDFYLIIVQAEQELRHNRLTLQKLLYYLQPTMWVMHEVWSSLVIIQLSDSRDAEVLTYLHERIKRLEGNKDAQQLIIGLVRKAAKPYMRMLQMWIQKGVIVDRHREFLVVDNEVIHRDELPEHYSDDYWERRYTLRDEQIPSFLAKYSDKILRTGKYLNVIRQCGKRVMPTQEMNLEFDPTSERHVSVINDAYYFAARMLLDVLLTENDLMGHLQSVKRYLLLNQGDFTMQFMDACEDELTKNVDHVLPMTLENLLGLTLRISSARNDPYKDDLHCELLPYDLVTQMSKIMKKEENWQAQPRLDLSGLECFAFTYEVKWPCSLVLNHISISKYQMLFRQLFYCKHVERQLCKIWKENSIARQFEPQAASLYRAAFTLRQRMMNAIQNLEYYMMIEIIEPNWHIFIEKMKTVENVDNVLRLHQDFLDSCLKNCMLTESSHLNRSIFKLCKICLKYCEFIQITQRYFQDAELRSMVRDSADSSESEQESLHCPQIETPLDPTDTFSERVRRFDLEFTQLLISFLKQINSMAKKNTADCFMNLVHRINFNAFYTDQMDKMCVEDAIG | failed
3 | MSKPPLFFIIIIALIVVAASFRFVQQRREKAANEAAPLQQKQVVVSNKREKPVNDRRSRQQEVIPAGTSMRYEVSFKPLNGGLEKTFRLQAQQYHALTVGDQGTLSYKGTRFVGFVSRTPDNE | failed
4 | MSKQIPVQDVTPPAKGDTNNNDLYAKREKIYTRAFTGIFRRLRMVGGAALFLLYFGTVWLNWSGRQAVWWDLPERKFYIFGATFWPQDFMLLSWLLIVCAFGLFFITVFAGRVWCGYTCPQSVWTWIYMWCEKVTEGDRNQRIKLDKAPMSGNKLLRKTAKHSLWLLIGLVTGLTFVGYFSPIRELIPELLTGQADGWAYFWVGFFTLATYGNAGWLREQVCIYMCPYARFQSVMFDKDTLIVSYDPRRGEKRGPRKKSLDYKAQGLGDCIDCTMCVQVCPTGIDIRDGLQIECIGCAACIDACDSIMEKMNYPKGLISYTTEHNLNGQKTHLARPRLIGYAIALVLMISALITAVVLRPLVGFDVSKDRVLYRENELGRIENVYSLKIMNKDQQDHTYILGAKGLEGLTLEGRRELKVAAGDILNLPMELSIEPEKLPSTTNEIVFTIESADDPSIHKEAKSRFIGPRTR | failed
5 | MSKQSVKKIISFSLTIIIAIVMLGLLKNLFSQSDDKALSEAIRNGAFLVDVRTPGEFASGSVAGAVNIPLDRIASRLNELKNKKTIIVFCRSGNRSSQAKSILERNGFSNVLDGGTWGHVASLKGDQ | failed
6 | MSKRANKLVIVTEKVLLKKVAKIIEEAGATGYTVVDTGGKGSRNVRSTGKPNTSDTDSNVKFEVLTENREMAEKIADQVAIKFFTDYAGIIYICEAEVLYGRTFCGPDGC | not failed
7 | MSKSEEKQELPLETSPYTKYEDIEDYKKNAYGTSGHQDVKPGHGGGTTDAPTPSGDAAPSAIDSANQKAKK | failed
8 | MSLAADSADAGFARDMSVHHQQAVEMSYIVRDRTDDEEVRRLAYDIAQTQANQRGMMIGWLDLWALPKVSSDPPMTWMGMGDAPSAGEGSLMPGMATDAEMKKLGTLDGKQAEVYYLQLMTEHHRGGVHMAKGCVERCTVGVEKRLARGMVESQESEIRLMADLLAERGAKEGHHHHHH | not failed
9 | MSLAILTTAYAKIIGLDFSYRKVSTLPIFTKKEDVILSSSHVQTIIYDPSFIADQNTFYLANPAVVIDYFPSKSHRSGIKFSLETFLAMYYKNIAADALADKDLNKSFLYANKAYQLDTDNIETINLLAVIHRRSGDLQTAEAIYKTGMDKGQTNIALLSNYIMLLKSQRRMDEVNTLQDKLNQLDDPDPYQWLGEAYTAKNVGNIKQAEIYFKKALSKAPYLNQAYMGLYKIYIKQNKLKKAQTMLVKALEWTYELDERKLYKYKLYNIEHNIAAIN | failed
10 | MSLAQIKSLFATRLYHAPLSEHGPALDPAEFAASCYSIAEDDDAGQEWCEREGYPGYTSYASLTDLPWRFPIFADLVKSLDAHVAAFAEDLEFELDGKALRLEDIWINILPEGGVHGSHIHPHSVISGTTYVAMPEGTSALKLEDPRLPFMMAAPTRRKGAREELRTFRSVAPKVGDVLLWESWLRHEVPMNMAEEDRISVSFNYAWGEGHHHHHH | not failed
11 | MSLARVLLNIHGTGDTVVLALCDEDLLGVELKYKGRTLHISEPFYSGKSMEPDRAAKKIREAVQEYEDEKTVAINALGELACSVVVDAGLAREDEIGELGGVPHVQMYILPREPFLEGHHHHHH | not failed
12 | MSLASFPVQILPNLYLGSARDSANLESLAKLGIRYILNVTPNLPNFFEKNGDFHYKQIPISDHWSQNLSRFFPEAIEFIDEALSQNCGVLVHSLAGVSRSVTVTVAYLMQKLHLSLNDAYDLVKRKKSNISPNFNFMGQLLDFERSLREGHHHHHH | not failed
13 | MSLATEGNGKVIHLTKAEFLAKVYNFEKNPEEWKYEGDKPAIVDFYADWCGPCKMVAPILDELAKEYDGQIVIYKVDTEKEQELAGAFGIRSIPSILFIPMEGKPEMAQGAMPKASFKKAIDEFLLKKEGHHHHHH | not failed
14 | MSLAVKPGEPLPDFLLLDPKGQPVTPATVSKPAVIVFWASWCTVCKAEFPGLHRVAEETGVPFYVISREPRDTREVVLEYMKTYPRFIPLLASDRDRPHEVAARFKVLGQPWTFVVDREGKVVALFAGRAGREALLDALLLAGADLEGHHHHHH | not failed
15 | MSLDGMPAKQQHNNTGESVELHFHYPIKGKQEPKNSHLVVLIEPKIEINKVIPESYQKEFEKSLFLQLSSFLERKGYSVSQFKDASEIPQDIKEKALLVLRMDGNVAILEDIVEESDALSEEKVIDMSSGYLNLNFVEPKSEDIIHSFGIDVSKIKAVIERVELRRTNSGGFVPKTFVHRIKETDHDQAIRKIMNQAYHKVMVHITKELSKKHMEHYEKVSSEMKKRKEGHHHHHH | not failed
16 | MSLDRLAPAIFVFLWSTGWVTAKYAVYYTGPLTFLCLRYLLAGLLLWAICRFSGISWPKQRADVLRAILSGVFLHGIYLGMIWWAIGQGVPAAIGGIIAGLQPLMTAVAARFMIGERISPLQRAGLLLGFAGIAIAVLPKVMATGALGMSVPLYAVAVNVLGMVSVTYGTLYQKKYVHGGNIMAVATLQYVGALLVTVPFALLLEDGHVDWSLGLAATLGWSVGAISIGAVALLLYLIRRGQVSRAASLIYLVPPLAAVEAAVLFGETLTPAMIAGTVLAVTGVYLANRKPAASVAVR | failed
17 | MSLDTGVTSVMFVERSLNEIRFWSRIMKEHSFFLRLGFRCEDTQLIEEANQFYRLFEHIEQIAHSYTNETDPEQIKRFNAEVQQAATNIWGFKRKILGLILTCKLPGQNNFPLLVDHTSREADYFRKRLIQLNEGKLDALPDAIIKENVFFLRIMADHAKFIGHLLDPSERKLVDTARNFSNDFDELMYQAIDLESMKPQSQTAPLLDQFLDQNRVSVASLRDFKKTARDLIEQCKIKSIIHPLLADHVFREADRFLEIIDMYDVHLTNIQSQPREGHHHHHH | not failed
18 | MSLDYDLLIKNGQTVNGMPVEIAIKEKKIAAVAATISGSAKETIHLEPGTYVSAGWIDDHVHCFEKMALYYDYPDEIGVKKGVTTVIDAGTTGAENIHEFYDLAQQAKTNVFGLVNISKWGIVAQDELADLSKVQASLVKKAIQELPDFVVGIKARMSRTVIGDNGITPLELAKQIQQENQEIPLMVHIGSAPPHLDEILALMEKGDVLTHCFNGKENGILDQATDKIKDFAWQAYNKGVVFDIGHGTDSFNFHVAETALREGMKAASISTDIYIRNRENGPVYDLATTMEKLRVVGYDWPEIIEKVTKAPAENFHLTQKGTLEIGKDADLTIFTIQAEEKTLTDSNGLTRVAKEQIRPIKTIIGGQIYDNEGHHHHHH | not failed
19 | MSLEEELRRETLKWLERIEERVKEIEGDEGFMRNIEAYISDSRYFLEKGDLVRAFECVVWAWAWLEIGLEVGKLHETAEGHHHHHH | not failed
20 | MSLEERVKEIIAEQLGVEKEKITPEAKFVEDLGADSLDVVELIMAFEEEFGIEIPDEDAEKIQTVGDVINYLKEKVGG | not failed
21 | MSLFEQLDELAAQGKPAALLTIVRKDGSAPRDVGDKMIVTADEEYGTIGGGTVEHLAVQDARSVLSGADDPGIRTYELERGGNTGMVCGGEMDVFIDHVRGQAQLYIAGGGHISVELAPLAERLGYAVTVVDDREAYADPTQFPDETDVIHGEYGEALGDLPMGTETAVAVATRSGTFDQAAVAAALDGEAGYVGLVASETKANHVLDSLAESGYARRDLSRVQTPVGLDLGGSGPAAVALSVLAEVTMDRHDATGARATRLNLDDLVVVRGGGDLGSGVVYRLQQAGFPVIVTEVDQPTVVRRAVAFGAALYEDEVEVEGVTGRAAADIDEALELLADDVVPVLVDPEATVADDLDAAVLVDAIMAKGAFDTGTRREDADVVVGMGPGFEAGEDVDAVVETDRGHELGRVFYDGLEHHHHHH | not failed
22 | MSLFLKDDSIQIREVWNDNLQEEMDLIRDVVDDFPYVAMDTEFPGIVVRPVGTFKSNADYHYETLKTNVNILKMIQLGLTFSNEQGNLPTCGTDKYCIWQFNFREFDLDSDIFALDSIELLKQSGIDLAKNTLDGIDSKRFAELLMSSGIVLNENVHWVTFHSGYDFGYLLKLLTCQNLPDSQTDFFKLINVYFPTVYDIKHLMKFCNSLHGGLNKLAELLEVERVGICHQAGSDSLLTSCTFRKLKENFFVGPLHKYSGVLYGLGVENGQVAI | failed
23 | MSLFRQGSQFMIIGALQLAVDCGIFIAATAAGMPAVPANLLGRIGGAMLGFWLNGRYTFAQQGDARLGWRRFRRFAAMWLTLTLISTWLLSTTVDLLGLRQAWLAKPLVEGGLAIVSFFLGRHVVYR | failed
24 | MSLHDFTLADVYRRNAALFPDRTAFMVDGVRLTHRDYLARAERLASGLLRDGVHTGDRVAILSQNCSEMIELIGAVALIGAILLPVNYRLNADEIAFVLGDGAPSVVVAGTDYRDIVAGVLPSLGGVKKAYAIGDGSGPFAPFKDLASDTPFSAPEFGAADGFVIIHTAAVGGRPRGALISQGNLLIAQSSLVDAWRLTEADVNLGMLPLFHVTGLGLMLTLQQAGGASVIAAKFDPAQAARDIEAHKVTVMAEFAPMLGNILDQAAPAQLASLRAVTGLDTPETIERFEATCPNATFWATFGQSETSGLSTFAPYRDRPKSAGRPLFWRTVAVVDAEDRPLPPGEVGEIVLRGPTVFKGYWNNAAATQHAFRNGWHHTGDMGRFDADGYLFYAGRAPEKELIKTGGENVYPAEVEGALKQHPAIADAVVIGVPDPQWSEAIKAVCVCKPGESIAADALAEFVASLIARYKKPKHVVFVEALPKDAKGAIDRAAVKTAHGQEGHHHHHH | not failed
